From publication PMC9495943, “Recombinant Expression of Archaeal Superoxide Dismutases in Plant Cell Cultures: A Sustainable Solution with Potential Application in the Food Industry” (Antioxidants, 2022)

Target: the molecule itself
Experiment: SEC; Superdex 200 calibrated with standard protein markers; 50 mM Tris-HCl pH 7.5, 50 mM NaCl; partially purified SOD (ultrafiltration retentate of transformed tomato cell extract) loaded; apparent native mass compared with the theoretical mass of a homodimer

B1: Superoxide dismutase (Mn/Fe-dependent SOD) from Saccharolobus solfataricus P2 (enzyme, UniProt P80857 1-211, looked up)
chain: MTLQIQFKKYELPPLPYKIDALEPYISKDIIDVHYNGHHKGYVNGANSLLERLEKVVKGDLQTGQYDIQGIIRGLTFNINGHKLHALYWENMAPSGKGGGKPGGALADLINKQYGSFDRFKQVFTETANSLPGTGWAVLYYDTESGNLQIMTFENHFQNHIAEIPIILILDEFEHAYYLQYKNKRADYVNAWWNVVNWDAAEKKLQKYLTK
notes: Mn/Fe-dependent superoxide dismutase of Saccharolobus solfataricus P2; whole CDS (636 bp) amplified from genomic DNA and expressed in tomato cells; subunit of approximately 24 kDa; ORF cloned into the NcoI-XbaI sites of pCK-EGFP, then into pBI121; No tag is mentioned; also called SODSs; sodSs product
stoichiometry N: 2
